Tests used:
[1] = biological target: T1, recombinant murine CD300LB overexpressed on BaF/3 cells (mouse, UniProt Q3U497 18-209); assay: cell-based or functional assay
T1 sequence: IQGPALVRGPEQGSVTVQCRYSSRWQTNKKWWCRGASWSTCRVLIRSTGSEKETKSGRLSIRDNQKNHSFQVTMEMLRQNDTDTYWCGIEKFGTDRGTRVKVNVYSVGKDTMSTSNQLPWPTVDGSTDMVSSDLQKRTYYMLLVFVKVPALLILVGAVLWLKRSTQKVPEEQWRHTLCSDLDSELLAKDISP

murine CD300A-Fc = biological target: T2, murine CD300A-Fc (mouse); assay: SPR (Carterra LSA), antibody immobilised
T2 construct: hIgG1-Fc fusion; the entry is the whole fusion chain; also called mCD300A; Mouse CD300A-Fc
From the text: (§1) In addition to the screening of antibodies for cross-reactivity by FACS analysis, surface plasmon resonance (SPR) analysis was used to determine the binding of antibodies to recombinant huCD300 and muCD300 family members (orthologs) conjugated to an Fc (human CD300A-Fc SEQ ID NO:144; human CD300LB-Fc SEQ ID NO:145; human CD300C-Fc SEQ ID NO: 146; human CD300D-Fc SEQ ID NO: 147; human CD300E-Fc SEQ ID NO: 148; human CD300F-Fc SEQ ID NO: 149; murine CD300A-Fc SEQ ID NO: 150; murine CD300LB-Fc SEQ ID NO:151; murine CD300C-Fc SEQ ID NO: 152; murine CD300D-Fc SEQ ID NO: 153, and murine CD300E-Fc SEQ ID NO: 154).
(§2) Binding of mouse anti-CD300LB IgG1 antibodies of the present disclosure to human and murine CD300 orthologs were evaluated by surface plasmon resonance (SPR) using a Carterra LSA instrument (Carterra, Salt Lake City, UT). […] A HC200M sensor chip (Carterra) was activated using the single channel flow cell with a 7-minute injection of a 1:1:1 mixture of 100 mM MES pH 5.5, 100 mM sulfo-NHS, 400 mM EDC (all reconstituted in MES pH 5.5; 100 μL of each mixed in vial immediately before running assay). After switching to the multi-channel array flow cell, the antibodies were injected over the activated chip in a 96-spot array for 10 minutes. The remaining unconjugated active groups on the chip were then blocked by injecting 1M Ethanolamine pH 8.5 (Carterra) for 7 minutes using the single channel flow cell. After priming with running buffer (HBS-TE, Carterra) with 0.5 mg/ml BSA (Sigma), the immobilized anti-CD300LB antibodies were tested for their ability to bind human and mouse recombinant CD300LB extracellular domains. Human CD300 family members and mouse CD300A were hIgG1-Fc fusions, while mouse CD300LB, mouse CD300C, mouse CD300D, and mouse CD300E were mouse IgG2a-Fc fusions (R&D Systems). Binding was assessed by injecting each analyte over the entire antibody array using the single channel flow cell. CD300 analytes were diluted to 300 nM or 600 nM in running buffer and injected in series without regeneration. Two or three buffer blanks were run between each mouse or human ortholog, respectively. Data were processed and analyzed using NextGenKIT high-throughput kinetics analysis software (Carterra).

murine CD300E-Fc = biological target: T3, murine CD300E-Fc (mouse); assay: SPR (Carterra LSA), antibody immobilised
T3 construct: mouse IgG2a-Fc fusion (R&D Systems); the entry is the whole fusion chain; also called mCD300E; Mouse CD300E-Fc
T3 chain: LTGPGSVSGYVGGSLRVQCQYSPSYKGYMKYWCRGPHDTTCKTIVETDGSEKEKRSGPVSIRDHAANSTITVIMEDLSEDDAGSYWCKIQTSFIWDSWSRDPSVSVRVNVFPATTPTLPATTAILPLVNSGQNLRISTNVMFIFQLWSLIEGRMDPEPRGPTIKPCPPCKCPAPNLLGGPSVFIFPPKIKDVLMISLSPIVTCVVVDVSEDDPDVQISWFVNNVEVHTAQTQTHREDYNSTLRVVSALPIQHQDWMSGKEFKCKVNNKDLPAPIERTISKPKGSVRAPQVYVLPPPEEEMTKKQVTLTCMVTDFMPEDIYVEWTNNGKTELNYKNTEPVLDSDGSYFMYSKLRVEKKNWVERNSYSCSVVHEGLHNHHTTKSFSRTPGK
From the text: as §1, §2

[2] = biological target: T4, murine CD300LB stably expressed on Jurkat cells (mouse, UniProt Q3U497 18-209); assay: flow cytometry, stable Jurkat cells, supernatant or 10 ug/mL, isotype subtracted
T4 construct: also called muCD300LB; mouse CD300LB
T4 sequence: T1 sequence
Method: Purified anti-CD300LB antibodies of the present disclosure were also evaluated for species cross-reactivity to mouse and human CD300LB stably expressed in Jurkat cells (generation of which is described above). Cells were counted and labeled with 200 nM CFSE, 500 nM VioBlue, or a combination of the two to discriminate between human CD300LB, Parental cells and mouse CD300LB. Cells were washed thoroughly with PBS containing 2% fetal bovine serum then resuspended at a total of 240,000 cells per well. Hybridoma supernatants (100 L) or purified antibodies at 10 μg/mL were added and incubated for one hour before the cells were washed again and stained with an APC-labeled anti-human or anti-mouse secondary. Cells were then analyzed using a BD FACSCanto II. Antibodies were analyzed for binding to mouse or human CD300LB by FlowJo software by gating on live cells, then the APC gMFI calculated for each labeled population by subtraction of the gMFI of the appropriate isotype control.

T2 sequence (chain, as listed by the source limits assumed): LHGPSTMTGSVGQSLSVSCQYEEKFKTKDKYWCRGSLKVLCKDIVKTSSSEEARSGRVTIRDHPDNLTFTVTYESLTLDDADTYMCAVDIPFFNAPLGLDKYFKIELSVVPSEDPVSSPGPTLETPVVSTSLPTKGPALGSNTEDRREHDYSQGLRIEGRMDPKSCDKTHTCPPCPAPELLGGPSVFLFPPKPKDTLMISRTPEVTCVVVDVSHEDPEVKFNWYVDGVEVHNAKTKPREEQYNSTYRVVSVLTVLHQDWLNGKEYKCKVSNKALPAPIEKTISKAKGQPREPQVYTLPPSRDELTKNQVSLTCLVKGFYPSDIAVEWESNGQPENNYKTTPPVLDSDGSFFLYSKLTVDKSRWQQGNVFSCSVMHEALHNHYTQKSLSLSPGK

Luminescence in BaF/3 [1]: 13000
binding result (murine CD300A-Fc): no binding (tested: 300 nM or 600 nM)
binding result (murine CD300E-Fc): no binding (tested: 300 nM or 600 nM)
gMFI [2]: 643 gMFI
B1: anti-CD300LB antibody CD-18 (antibody, V domains shown)
VH: DVQLQESGPDLVKPSQSLSLTCTVTGYSITSGYSWHWIRQFPDNKLEWMGYILSRGDTNFNPSLKSRISITRSTSNNQFFLHFNSVTTEDTATYYCARDFFDYWGQGTTLTVSS
VL: DVLMTQTPLSLPVSLGDQASISCRSSQSIVHSNGNTYLEWYLQKPGQSPKLLIYKVSDRFSGVPDRFSGSGSGTDFTLKISRVEAEDLGVYFCFQGSHVPYTFGGGTKLEIK
